PMC5929992 (Science signaling, 2016)
Numbering of substitutions follows the chain as printed. Names may count otherwise. Values belong to the molecule of their own block, whether it stands above or below them. Non-standard residues stand in square brackets, D forms with d. No end group written: not given here. pY = N[C@@H](Cc1ccc(OP(=O)(O)O)cc1)C(=O)O

Key:
Assay in all cases: SPR
[1] = molecular target: Biotinylated CD28CD 25-mer peptide (residues 194 to 218) phosphorylated at Tyr207 (mouse)
[2] = molecular target: Murine full-length Lck (amino acid residues 6 to 509) (mouse, UniProt P06240 6-509, phosphotyrosine at 505)
Chain of Murine full-length Lck (amino acid residues 6 to 509) (P06240 6-509): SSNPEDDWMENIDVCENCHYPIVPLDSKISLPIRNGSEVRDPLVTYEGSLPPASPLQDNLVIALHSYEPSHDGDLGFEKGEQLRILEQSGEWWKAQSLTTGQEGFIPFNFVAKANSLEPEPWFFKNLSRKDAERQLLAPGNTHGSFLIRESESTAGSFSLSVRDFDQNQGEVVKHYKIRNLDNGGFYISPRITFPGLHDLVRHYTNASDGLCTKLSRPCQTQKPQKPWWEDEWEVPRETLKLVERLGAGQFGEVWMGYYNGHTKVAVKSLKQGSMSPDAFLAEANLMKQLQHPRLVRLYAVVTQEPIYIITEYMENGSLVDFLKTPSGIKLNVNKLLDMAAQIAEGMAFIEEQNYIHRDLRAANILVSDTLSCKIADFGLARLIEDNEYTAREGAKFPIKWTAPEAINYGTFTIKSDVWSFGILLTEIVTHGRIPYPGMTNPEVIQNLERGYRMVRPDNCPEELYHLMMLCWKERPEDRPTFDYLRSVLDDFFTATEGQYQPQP

[3] = molecular target: Lck SH2 domain (residues 122 to 226) (mouse, UniProt P06240 122-226)
Chain of Lck SH2 domain (residues 122 to 226) (P06240 122-226): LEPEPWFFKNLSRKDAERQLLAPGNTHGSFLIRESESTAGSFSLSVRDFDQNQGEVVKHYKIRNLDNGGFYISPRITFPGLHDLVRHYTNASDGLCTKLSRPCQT

B1: CD28WT cytoplasmic domain (CD28CD), disulfide-linked dimer (domain or fragment, mouse)
chain: CNSRRNRLLQSDYMNMTPRRPGLTRKPYQPYAPARDFAAYRP
modifications: disulfide between the added N-terminal cysteines of the two chains (oxidized with 1 mM GSSG)
Kd [2]: 0.199 µM

Molecule: PRRPGLTRKPYQA[pY]AAARDFAAYRP (peptide, UniProt P31041 194-218, looked up, also: biotinylated, position not given here) [Biotinylated CD28CD 25-mer peptide phosphorylated at Tyr207, double mutant P206A/P209A]
Kd [3]: 63.7 µM

Other lines, results leading:

Kd [1]: 10 µM
Molecule: Lck SH2 domain (residues 122 to 226) (from UniProt P06240 122-226) (domain or fragment)

Kd [2]: 0.187 µM
B2: CD28 Mut5 cytoplasmic domain, disulfide-linked dimer (domain or fragment, mouse)
chain: B1 chain with P30A, P33A
modifications: disulfide between the added N-terminal cysteines of the two chains (oxidized with 1 mM GSSG)
